Experiments:
Experiment in all cases: native gel or EMSA
[1] = molecular target: BG505-NFL Env trimer (native flexible linker variant, C-terminal hexahistidine tag) (HIV-1 (BG505))
[2] = molecular target: BG505-NtCC Env trimer (NFL variant with the N-terminal cysteine-containing coupling tag CAAC and (G4S)3 linker) (HIV-1 (BG505))
[3] = molecular target: BG505-SOSIP Env trimer (BG505 SOSIP.664 sequence, mini-tPA signal sequence, C-terminal hexahistidine tag) (HIV-1 (BG505))
[4] = molecular target: ConC-NFL Env trimer (stabilized HIV-1 clade C consensus, native flexible linker variant, with G473T) (HIV-1 clade C consensus)
[5] = molecular target: ConC-NtCC Env trimer (stabilized HIV-1 clade C consensus NFL variant with the N-terminal coupling tag CAAC and (G4S)3 linker, with G473T) (HIV-1 clade C consensus)
[6] = molecular target: ConC-SOSIP Env trimer (stabilized HIV-1 clade C consensus, ConCv5 KIKO, with G473T) (HIV-1 clade C consensus)

BG505-NFL Env trimer (native flexible linker variant, C-terminal hexahistidine tag) (domain or fragment)
stoichiometry N [1]: 3

BG505-NtCC Env trimer (NFL variant with the N-terminal cysteine-containing coupling tag CAAC and (G4S)3 linker) (domain or fragment)
stoichiometry N [2]: 3

BG505-SOSIP Env trimer (BG505 SOSIP.664 sequence, mini-tPA signal sequence, C-terminal hexahistidine tag) (complex)
stoichiometry N [3]: 3

ConC-NFL Env trimer (stabilized HIV-1 clade C consensus, native flexible linker variant, with G473T)
stoichiometry N [4]: 3

ConC-NtCC Env trimer (stabilized HIV-1 clade C consensus NFL variant with the N-terminal coupling tag CAAC and (G4S)3 linker, with G473T)
stoichiometry N [5]: 3

ConC-SOSIP Env trimer (stabilized HIV-1 clade C consensus, ConCv5 KIKO, with G473T) (complex)
stoichiometry N [6]: 3

— publication PMC8230641
